Experimental data: article PMC2112059

Target: Triton X-100-insoluble residue of platelets (platelet cytoskeleton) (human (endogenous in platelets)) (UniProt P60709)
Assay: co-sedimentation

percent of radioactivity in the supernatant fraction, without m1: > 95%
Substance: platelet surface glycoprotein GPIII (from UniProt P05106 27-788) (natural protein)
